According to the supplement of paper PMC9170038:

Columns and labels:
[1] = test system: MS2 coat protein; test: apparent KD of MS2 coat protein, switch OFF state (with FMN for OFF switches, without FMN for ON switches); designed switch direction (-1 OFF switch, 1 ON switch): -1; higher = weaker reporter binding; conditions: FMN input: 0 or 200 uM; Eterna round: R93 (includes R88 designs)
Procedure, shortened: (§1)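 For every design, apparent KD is the median of normalised binding-curve fits from its clusters. The RNA switches were transcribed on-chip from Illumina sequencing clusters and titrated with SNAP-549-labelled MS2 coat protein (twofold steps, 0.7 or 1.5 nM to 3 µM; 0.8–1.5 h to 10–20 min per step). Titrations used 100 mM Tris-HCl pH 7.5, 80 mM KCl, 4 mM MgCl2, without or with constant ligand.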

[2] = test system: MS2 coat protein; test: apparent KD of MS2 coat protein, switch ON state; designed switch direction (-1 OFF switch, 1 ON switch): -1; higher = weaker reporter binding; conditions: FMN input: 0 or 200 uM; Eterna round: R93 (includes R88 designs)
Procedure, shortened: as §1

Sequence | apparent KD of MS2 coat protein [1] [nM] | apparent KD of MS2 coat protein [2] [nM]
AACAGGACAGGAUAUACAUGAGGAUCACCCAUGUGAGAAUUCAGUAGAUUGCCACAGAGUAGAAGGGUCCUGGA [Ruby 100] | 102 | 58.5
ACGACUAGAGGAUAUACAUGAGGAUCACCCAUGUAACUGUCAGAAAACUGACGGAGAUGUAGAAGGCUAGUCGA [Mat - Exclusion 3 - Neo mod - D80] | 36.1 | 16.7
AAAUUGUCAGGAUAUGUAGCAAAAGGUGAUCAAAAAAAGCUACAGAAGGGACAUGAGGAUCACCCAUGUAAAAA [Ex4: 936] | 359 | 242
GAAUGAUGAGGAUAUACAUGAGGAUCACCCAUGUGUAAAAAUAAAUACACAAAAGAAAGUAGAAGGCAUCAAAG [Mat - Exclusion 3 - Mayanna mod - D120] | 99 | 22.9
AGUCAUACAGGAUAUACAUGAGGAUCACCCAUGUUUAUCCUAAAAAGGUGAUCCUCAUGUAGAAGGGUAUGACA [EX3 210: Super Stable 10] | 16.6 | 12.4
AAAAAGUGAGGAUAUACAUGAGGAUCACCCAUGUGUAUAAAAAAUUACACAAAAGCAUGUAGAAGGCACUAAAA [JL In the Red] | 143 | 37
AAAGGACGAGGAUAUACAUGAGGAUCACCCAUGUAAAAAGCGUAGCAAAAGAGCUUAUGUAGAAGGCGUCCAAA [Meechl Ex3 2 R2 v4] | 49.3 | 20
UAGAAGGUAGGAUAUACUUGGGAAACUAAUGCAAAGAUAUAACAUGAGGAUCACCCAUGUAGAAGGGCCAGUAA [JR_Exc002_Sub018] | 97.9 | 114
AAGAAGUCAGGAUAUGCUGCUCGUCACAAAAGUGAUGAGUAGCAGAAGGGACAUGAGGAUCACCCAUGUAAAGA [JL eternac mod 0] | 67.5 | 52
AAAAAUGGAGGAUAUACAUGAGGAUCACCCAUGUGUAACUAUACUAAGCACAAAAAAAGUAGAAGGCCAAAAAA [Gilly Gone Silly 9 - Jieux - Exclusion 3] | 57.4 | 53.5
AAAAAUUGAGGAUAUACGAACAUGUCGAAAGACGUGAAGGGACAUGAGGAUCACCCAUGUAGAAGGCGAAAGAA [Mat - Exclusion 2 - JL mod - D67] | 18.2 | 33.6
AAAAAGUGAGGAUAUACGCUGAAGAGAAGACACAACCAGGCGUAGAAGGCACAUGAGGAUCACCCAUGUACAAA [Ex4 Malc#8] | 27.3 | 28.2
AACAGUACAGGAUAUACAUGAGGAUCACCCAUGUGAAAAUUAAGUGGAAAACCACAAUGUAGAAGGGUACUGGA [Mat - Exclusion 3 - Eli mod - D49] | 219 | 46.1
AAACAACAUGAGGAUCACCCAUGUUAGGAUAUGAACGAAAUAAAAUAAAAAUAAAAGUUCAGAAGGGACAAAAA [Mat - Exclusion 1 - Eli mod - D21] | 25.6 | 23.4
AGGAAACAUGAGGAUCACCCAUGUGAGGAUAUUGGAAAGAAAAGAAAAGAAAGAAGAAUAAGAAGGCACAAGAA [Merneith] | 18.2 | 21.8
AAGAAUGAAGGAUAUACAUGAGGAUCACCCAUGUAAAAGAAAGAGGGAAAAGAGAAAAGUAGAAGGUCAAAGAA [Ptolemy XI Alexander II] | 20.4 | 19.8
CCUGUGUGAGGAUAUGGUAAAAAAAAAAAAAAAUAGCUCCUCCAGAAGGCACAUGAGGAUCACCCAUGUCGUGG [Jolly's Folly 16 - Jieux - Exclusion 4] | 73.9 | 37.6
GAAAAGUGAGGAUAUUCGGAAGGGAAAGCGCAAACCCAACCGAAGAAGGCACAUGAGGAUCACCCAUGUGGAAG [Mat - Exaclusion 4 - Eli mod - D58] | 28.7 | 23.6
AACAAGUGAGGAUAUGAAAAUAAAACAAACAAACAAAUAAAUCAGAAGGCACAUGAGGAUCACCCAUGUAAAAA [JR_Exc004_Sub1203] | 18.5 | 17.1
AACAUGUCAGGAUAUGUGGAAAGAAUAAAAGAAAUAAGAACACAGAAGGGACAUGAGGAUCACCCAUGUCAACA [May 31] | 25.7 | 27.7
AACAGUACAGGAUAUACAUGAGGAUCACCCAUGUGAUAGGAAUAAAACAAAAAUAAAAGUAGAAGGGUACUGGA [Ruby 46] | 145 | 34
AGCAAACAUGAGGAUCACCCAUGUGAGGAUAUGAACGAAAAUAAAUAAAAAUAAAAGUUCAGAAGGUACGAGCA [66%, Wbt, 27] | 31.9 | 27.7
AAAAAACAUGAGGAUCACCCAUGUUAGGAUAUGCUAUGGAAAAUAAAAAUAAAACAUAGCAGAAGGAACAAAAA [Denovo 2] | 36.9 | 18.6
